This test deals with portions of the MUC16 extracellular domain (ECD) (UniProt Q8NEV4). As to the kind of experiment: surface plasmon resonance with portions of the MUC16 ECD. A general note: SPR reads the build-up and loss of mass on a sensor chip optically.

The record followed here is patent USRE47194 (Genentech, dated 2019).

B1: A117C thio hu anti-MUC16 3A5 humanized variant (antibody, human IgG1, kappa, V domains shown)
VH: EVQLVESGGGLVQPGGSLRLSCAASGYSITNDYAWNWVRQAPGKGLEWVGYISYSGYTTYNPSLKSRFTISRDTSKNTLYLQMNSLRAEDTAVYYCARWTSGLDYWGQGTLVTVSS
VL: DIQMTQSPSSLSASVGDRVTITCKASDLIHNWLAWYQQKPGKAPKLLIYGATSLETGVPSRFSGSGSGTDFTLTISSLQPEDFATYYCQQYWTTPFTFGQGTKVEIKR
notes: Full-length IgG expressed in CHO cells; Kabat A114C, Eu A118C) change; also called thio hu anti-MUC16 HC A117C 3A5; A117C thio hu 3A5
As for B1, the Kd (usually the constant that tells how readily two partners part at equilibrium) amounted to 0.116 nM. That is a sub-nanomolar value.
